From patent US20260103541A1 (UNIVERSIT T Z RICH, published 2026)
Changes are numbered by the printed parent chain.

B1: DARPin #1 (designed binder)
chain: DLGKKLLDAARAGQDDEVRILMANGADVNAMDVWGVTPLHLAAWHRHLEIVEVLLKTGADVNANDDSGFTPLHLAAHWGHLEIVEVLLKHGADVNAQDKFGKTPFDLAIDNGNEDIAEVLQ
notes: also called designed ankyrin repeat domain #1; not shown: N terminal His6 tag; C terminal FLAG tag
B2: DARPin #11 (designed binder)
chain: DLVKKLLEAARAGQDDEVRILMANGADVNANDHFGITPLHLTAWWGHLEIVEVLLKAGADVNAVDHWGTTPLHLAAHQGHLEIVEVLLKHGADVNAQDKFGKTAFDISIDNGNEDIAEVLQ
notes: also called designed ankyrin repeat domain #11; not shown: N terminal His6 tag; C terminal FLAG tag
B3: DARPin #22 (designed binder)
chain: DLGKKLLEAARAGQDDEVRILMANGADVNASDWWGITPLHLAAYWGHLEIVEVLLKTGADVNAQDNQGITPLHLAATLGHLEIVEVLLKHGADVNAQDKFGKTPFDLAIDNGNEDIAEVLQ
notes: also called designed ankyrin repeat domain #22; not shown: N terminal His6 tag; C terminal FLAG tag
B4: DARPin #8 (designed binder)
chain: DLGKKLLEAARAGQDDEVRILMANGADVNAADEYGITPLHLAAFFGHLEIVEVLLKTGADVNADDAWGSTPLHLAAYKGHLEIVEVLLKHGADVNAQDKFGKTPFDLAIDNGNEDIAEVLQ
notes: also called designed ankyrin repeat domain #8; not shown: N terminal His6 tag; C terminal FLAG tag
B5: DARPin #12 (designed binder)
chain: DLGKKLLEAARAGQDDEVRILMANGADVNAQDQRGRTPLHLAAAWGHLEIVEVLLKTGADVNAADDMGHTPLHLAAAFGHLEIVEVLLKHGADVNAQDKFGKTPFDLAIDNGNEDIAEVLQ
notes: also called designed ankyrin repeat domain #12; not shown: N terminal His6 tag; C terminal FLAG tag
B6: DARPin #16 (designed binder)
chain: DLGKKLLEAARAGQDDEVRILMANGADVNAKDRYGITPLHLAAYWGHLEIVEVLLKAGSDVNALDYHGSTPLHLAAWFGHLEIVEVLLKHGADVNAQDKFGKTPFDLAIDNGNEDIAEVLQ
notes: also called designed ankyrin repeat domain #16; not shown: N terminal His6 tag; C terminal FLAG tag
B7: DARPin #24 (designed binder)
chain: B6 chain with K31I, R33V, Y34H, S59A, L64E, Y66E, H67S, S69H, W77H, F78W
notes: also called designed ankyrin repeat domain #24; not shown: N terminal His6 tag; C terminal FLAG tag
B8: DARPin #26 (designed binder)
chain: B3 chain with S31I, Y44L, W45F, Q64E, N66R, Q67L, I69F, L78T, H90A
notes: also called designed ankyrin repeat domain #26; not shown: N terminal His6 tag; C terminal FLAG tag
B9: DARPin #13 (designed binder)
chain: DLGKKLLEAARAGQDDEVRILMANGADVNATDQHGRTPLHLAAHTGHLEIVEVLLKTGADVNAQDHQGITPLHLAAFKGHLEIVEVLLKTGADVNAQDNWGYTPLHLAAARGHLEIVEVLLKAGADVNAQDKFGKTPFDLAIDNGNEDIAEVLQ
notes: also called designed ankyrin repeat domain #13; not shown: N terminal His6 tag; C terminal FLAG tag
B10: DARPin #15 (designed binder)
chain: DLGKKLLEAARAGQDDEVRILMANGADVNAMDMWGITPLHLAAWAGHLEIVEVLLKTGADVNAFDQHGNTPLHLAAYRGHLEIVEVLLKTGADVNAHDNWGTTPLHLTAHNGHLEIVEVLLKAGADVNAQDKFGKTPFDLAIDNGNEDIAEVLQ
notes: also called designed ankyrin repeat domain #15; not shown: N terminal His6 tag; C terminal FLAG tag
B11: DARPin #17 (designed binder)
chain: DLGKKLLEAARAGQDDEVRILMANGADVNAADNYGITPLHLAAYRGHLEIVEVLLKTGADVNAHDNVGNTPLHLAAAKGHLEIVEVLLKAGADVNADDVQGVTPLHLAASQGHLEIVEVLLKHGADVNAQDKFGKTPFDLAIDNGNEDIAEVLQ
notes: also called designed ankyrin repeat domain #17; not shown: N terminal His6 tag; C terminal FLAG tag
B12: DARPin #20 (designed binder)
chain: DLGKKLLEAARAGQDDEVRILMANGADVNAVDYQGRTPLHLAAQYGHLEIVEVLLKTGADVNAQDHHGITPLHLAAFWGHLEIVEVLLKAGADVNAKDDQGNTPLHLAAWRGHLEIVEVLLKHGADVNAQDKFGKTPFDLAIDNGNEDIAEVLQ
notes: also called designed ankyrin repeat domain #20; not shown: N terminal His6 tag; C terminal FLAG tag
B13: DARPin #25 (designed binder)
chain: DLGKKLLEAARAGQDDEVRILMANGADVNATDWQGSTPLHLAAQHGHLEIVEVLLKTGADVNAEDQNGITPLHLAAYWGHLEIVEVLLKAGADVNAVDRQGNTPLHLAAVWGHLEIVEVLLKHGADVNAQDKFGKTPFDLAIDNGNEDIAEVLQ
notes: also called designed ankyrin repeat domain #25; not shown: N terminal His6 tag; C terminal FLAG tag
B14: DARPin #21 (designed binder)
chain: DLGKKLLEAAELGQLDEVRILMANGADVNAMDQHGITPLHLAAWHGHLEIVEVLLKTGADVNAKDQDGSTPLHLAAYLGHLEIVEVLLKTGADVNAFDKFGNTPLHLAAHRGHLEIVEVLLKHGADVNAQDKFGKTPFDLAIDNGNEDIAEVLQ
notes: also called designed ankyrin repeat domain #21; not shown: N terminal His6 tag; C terminal FLAG tag
B15: DARPin #3 (designed binder)
chain: DLGKKLLEAARAGQDDEVRILMANGADVNAQDMTGKTPLHLAAREGHLEIVEVLLKTGADVNAKDLWGVTPLHLAAFSGHLEIVEVLLKTGADVNAWDWEGKTPLHLAAVKGHPEIVEVLLKHGADVNAQDKFGKTPFDLAIDNGNEDIAEVLQ
notes: also called designed ankyrin repeat domain #3; not shown: N terminal His6 tag; C terminal FLAG tag
B16: DARPin #23 (designed binder)
chain: DLGKKLLEAARYGQDDEVRILMANGADVNAEDQHGHTPLHLAAFSGHLEIVEVLLKTGADVNANDINGVTPLHLAANVGHLEIVEVLLKHGADVNAQDKFGKTPFDLAAYLGNEDIAEVLQ
notes: also called designed ankyrin repeat domain #23; not shown: N terminal His6 tag; C terminal FLAG tag
B17: DARPin #4 (designed binder)
chain: DLGKKLLDAASVGQDDEVRILMANGADVNASDTYGRTPLHVAAQHGHLEIVDVLLAHGADVNASNAYGSTPLHVAAWTGHLEIVDVLLAYGADVNASNSQGNTPLHAAAATGHLEIVEVLLKHGADVNAQDKFGKTPFDLAIDNGNEDIAEVLQ
notes: also called designed ankyrin repeat domain #4; not shown: N terminal His6 tag; C terminal FLAG tag
B18: DARPin #5 (designed binder)
chain: DLGKKLLEAARAGQDDEVRILMANGADVNAEDHVGRTPLHLAAAHGHLEIVEVLLKTGADVNARDRHGITPLHLAAWSGHLEIVEVLLKTGADVNASDKQGNTPLHLAAYRGHLEIVEVLLEAGADVNAQDKFGKTPFDLAIDNGNEDIAEVLQ
notes: also called designed ankyrin repeat domain #5; not shown: N terminal His6 tag; C terminal FLAG tag
B19: DARPin #10 (designed binder)
chain: DLGKKLLEAARAGQDDEVRILMANGADVNAADDQGRTPLHLAAMHGHLEIVEVLLKTGADVNANDWFGITPLHLAAWWGHLEIVEVLLKAGADVNAVDHSGDTPLHLAAHLGHLEIVEVLLKHGADVNAQDKFGKTPFDLAIDNGNEDIAEVLQ
notes: also called designed ankyrin repeat domain #10; not shown: N terminal His6 tag; C terminal FLAG tag

Molecular target: T1, human FAP (fibroblast activation protein) on HT1080hFAP cells (human, UniProt Q12884 1-760)
T1 construct: also called seprase
T1 sequence: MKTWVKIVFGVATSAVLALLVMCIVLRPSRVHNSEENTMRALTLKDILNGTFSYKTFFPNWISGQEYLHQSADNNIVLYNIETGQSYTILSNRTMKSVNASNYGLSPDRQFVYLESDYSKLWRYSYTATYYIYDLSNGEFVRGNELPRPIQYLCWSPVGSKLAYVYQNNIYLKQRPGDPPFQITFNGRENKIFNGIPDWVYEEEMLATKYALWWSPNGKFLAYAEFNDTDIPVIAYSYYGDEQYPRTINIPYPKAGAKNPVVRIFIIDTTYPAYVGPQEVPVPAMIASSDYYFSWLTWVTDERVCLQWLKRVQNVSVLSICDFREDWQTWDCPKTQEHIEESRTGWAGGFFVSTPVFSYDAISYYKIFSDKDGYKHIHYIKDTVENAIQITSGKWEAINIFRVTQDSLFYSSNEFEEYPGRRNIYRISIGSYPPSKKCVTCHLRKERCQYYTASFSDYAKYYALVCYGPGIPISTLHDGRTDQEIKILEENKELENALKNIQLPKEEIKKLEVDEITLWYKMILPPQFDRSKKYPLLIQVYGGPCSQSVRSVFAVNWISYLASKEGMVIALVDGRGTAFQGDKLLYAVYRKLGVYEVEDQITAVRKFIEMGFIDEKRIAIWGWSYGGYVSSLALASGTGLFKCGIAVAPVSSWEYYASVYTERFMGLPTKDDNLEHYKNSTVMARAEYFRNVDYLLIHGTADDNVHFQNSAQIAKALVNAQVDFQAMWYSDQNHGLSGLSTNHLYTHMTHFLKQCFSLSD
Test: flow cytometry cell-based binding assay, HT1080hFAP against FAP-negative HT1080 cells

Binder | binding result
B1 | binds
B2 | binds
B3 | binds
B4 | binds
B5 | binds
B6 | binds
B7 | binds
B8 | binds
B9 | binds
B10 | binds
B11 | binds
B12 | binds
B13 | binds
B14 | binds
B15 | binds
B16 | binds
B17 | binds
B18 | binds
B19 | binds
